Reference: article doi:10.1101/2021.11.15.468501

Biological target: human MCU-EMRE fusion protein (hME) (human)

Question: With “MICU1EF (MICU1 with D231A, E242K, D421A, E432K), N-terminally MBP-tagged (from UniProt Q9BPX6 34-476) (natural protein)” as the substance, how does the time constant of the decay of hME Ca2+ current on perfusion of 10 μM MICU1EF read?
Answer: The time constant of the decay of hME Ca2+ current on perfusion of 10 μM MICU1EF was 44 s.
